“Also recorded” adds a separate entry of the source.
Tests used:
Format in all cases: cell-based
human eosinophils = test: eosinophil chemotaxis (ECA) test, bilayered 48-well chamber
Method: (§1) The eosinophil chemotaxis was measured by following the method described in the reference (Lymphokine Cytokine Res. 10, 481-486, 1991; Lymphokine Cytokine Res. 11, 331-338, 1992). Specifically, eosinophils of CD16- were purified from the peripheral blood of normal volunteers by discontinuous density-gradient method using Percoll (Pharmacia, Picataway, N.J.), and the following anti-CD16 immunoglobulin (DAKO. A. S, Glostrup, Denmark) magnetic antibody treatment. Purity of the obtained eosinophils was 97% or higher, and living cells were 95%. Chemotaxis was measured using a bilayered 48-well plate (NeuroProbe, Cabin John, Md.) mediated through a polyvinylpyrrolidone-free membrane (a standard pore size of 5 micron). Chemotactic factors in various concentration, and 0.5×10^6 to 1×10^6 cells/ml human eosinophils were placed on the lower and upper layers, respectively, and incubated under 5% carbon dioxide at 37° C. for 1 to 2 hours. Then the membrane separating two plates was removed, and eosinophils were stained by placing them in DiffQuick stain (Baxter Health Care, McGaw Park, Ill.) to count the eosinophils which were passing through the membrane under a microscope. All assays were conducted three times.
As a positive control, human C5a (Sigma, Saint Louis, Mo.), IL-5 (Genzyme, Cambridge, Mass.), RANTES (Genzyme), and eotaxin-1 (Seikagaku-Kogyo, Tokyo) were used. […]

neutrophils = test: neutrophil chemotaxis test; settings: PBS negative control, IL-8 positive control; FIG. 6
lymphocytes = test: lymphocyte chemotaxis test; settings: membrane pore size 3 μm; PBS negative control, lymphotactin positive control; FIG. 7
Method: as §1
(§2) The similar experiments were conducted in regard to lymphocytes (FIG. 7) and monocytes (FIG. 8). Pore sizes of the membranes are 3 and 8 μm, respectively. […]

monocytes = test: monocyte chemotaxis test; settings: membrane pore size 8 μm, PBS negative control, MCP-1 positive control, FIG. 8
Method: as §1, §2

B1: ecalectin: eosinophil-specific chemotactic factor, 323 amino acid protein of SEQ ID NO: 2, similar to galectin-9; recombinant from Sf9 insect cells (protein, listed as Homo sapiens)
chain: MAFSSSQAPYLSPAVPFSGTIQGGLQDGLQITVNGTVLSSSGTRFAVNFQTGFSGNDIAFHFNPRFEDGGYVVCNTRQNGSWGPEERKTHMPFQKGMPFDLCFLVQSSDFKVMVNGILFVQYFHRVPFHRVDTISVNGSVQLSYISFQPPGVWPANPAPITQTVIHTVQSAPGQMFSTPAIPPMMYPHPAYPMPFITTILGGLYPSKSILLSGTVLPSAQRFHINLCSGNHIAFHLNPRFDENAVVRNTQIDNSWGSEERSLPRKMPFVRGQSFSVWILCEAHCLKVAVDGQHLFEYYHRLRNLPTINRLEVGGDIQLTHVQT
specificity of chemotactic activity (human eosinophils; eosinophils versus neutrophils, lymphocytes, monocytes, FIGS. 5-8): specific to eosinophils | eosinophil chemotactic activity (human eosinophils; recombinant ecalectin purified from Sf9 insect cells, stained eosinophils passing through 5 micron membrane, FIG. 5): strong eosinophil chemotactic activity concentration-dependently; also recorded: concentration-dependent eosinophil chemotactic activity | neutrophil chemotactic activity (neutrophils): no or little neutrophil chemotactic activity; also recorded: low or absent; also recorded: does not cause neutrophil chemotaxis | lymphocyte chemotactic activity (lymphocytes): no chemotactic activity; also recorded: low or absent; also recorded: does not cause lymphocyte chemotaxis | monocyte chemotactic activity (monocytes): no chemotactic activity; also recorded: low or absent | monocyte chemotactic activity (monocytes; listed as recombinant ecalectin): does not cause monocyte chemotaxis

From patent US20020034726A1, “Eosinophil chemotactic factor” (priority 1998, published 2002)
